This note sets out measurements from US12129490B2, “Methods for generating hepatocytes and cholangiocytes from pluripotent stem cells” (UNIVERSITY HEALTH NETWORK, priority 2018, dated 2024).

The subject of assay [1] is hPSC-derived hepatoblast aggregates. Briefly: Growth factor addition to hepatoblast aggregates co-cultured on OP9 stroma. It is filed as cell-based, human. The note with it: for cholangiocyte branching: hepatoblasts co-cultured with OP9. An excerpt: To investigate the effect of Notch signaling on cholangiocyte development, we co-cultured the hepatoblast population (day 25) with OP9 stromal cells that are known to express different Notch ligands including Jagged-1^4,5. […] To overcome this problem, we generated 3D aggregates from the day 25 monolayer cells and cultured them on the OP9 stromal cells.

The subject of assay [2] is hESC-derived embryoid bodies. The assay can be described thus: Endoderm induction in hESC-derived embryoid bodies, flow cytometry. It is filed as cell-based, human. The note with it: day six EBs. The method, then: Similar to protocols using monolayer cultures^16, it involves specific steps that recapitulate the critical stages of liver development in the early embryo. EBs are formed from small aggregates by culture for 24 hours in low levels of BMP4, as previously described^18. The EBs are subsequently exposed to high concentrations of activin A (hereafter referred to as activin) for five days to induce definitive endoderm, a population defined by expression of the surface markers CXCR4, CKIT and EPCAM and the transcription factors SOX17 and FOXA2.
Addition of Wnt3A to the activin-induced EB cultures led to reproducible increases in the proportion of CXCR4^+, SOX17^+ and FOXA2^+ cells within the EBs (FIG. 1c). With the increase in CXCR4 expression, the proportion of CKIT^+CXCR4^+ and CXCR4^+EPCAM^+ cells increased to greater than 95% of the population. […] Endoderm induction in the EBs was influenced by the base culture media used. StemPro34 supported more efficient endoderm induction than neural basal media that we used previously (FIG. 1f). The induction of highly enriched endoderm is an important first step in the efficient and reproducible generation of hepatocyte-like cells from hPSCs.
Media was changed every 3 days.
Flow cytometric analyses were performed as described previously^45. […] Stained cells were analyzed using an LSRII flow cytometer (BD).
On the technique in general: In flow cytometry, cells or beads pass a laser one at a time.

B1: EGF: Epidermal Growth factor (protein, UniProt P01133 23-1207, looked up)
Pro-epidermal growth factor: PQHWSCPEGTLAGNGNSTCVGPAPFLIFSHGNSIFRIDTEGTNYEQLVVDAGVSVIMDFHYNEKRIYWVDLERQLLQRVFLNGSRQERVCNIEKNVSGMAINWINEEVIWSNQQEGIITVTDMKGNNSHILLSALKYPANVAVDPVERFIFWSSEVAGSLYRADLDGVGVKALLETSEKITAVSLDVLDKRLFWIQYNREGSNSLICSCDYDGGSVHISKHPTQHNLFAMSLFGDRIFYSTWKMKTIWIANKHTGKDMVRINLHSSFVPLGELKVVHPLAQPKAEDDTWEPEQKLCKLRKGNCSSTVCGQDLQSHLCMCAEGYALSRDRKYCEDVNECAFWNHGCTLGCKNTPGSYYCTCPVGFVLLPDGKRCHQLVSCPRNVSECSHDCVLTSEGPLCFCPEGSVLERDGKTCSGCSSPDNGGCSQLCVPLSPVSWECDCFPGYDLQLDEKSCAASGPQPFLLFANSQDIRHMHFDGTDYGTLLSQQMGMVYALDHDPVENKIYFAHTALKWIERANMDGSQRERLIEEGVDVPEGLAVDWIGRRFYWTDRGKSLIGRSDLNGKRSKIITKENISQPRGIAVHPMAKRLFWTDTGINPRIESSSLQGLGRLVIASSDLIWPSGITIDFLTDKLYWCDAKQSVIEMANLDGSKRRRLTQNDVGHPFAVAVFEDYVWFSDWAMPSVMRVNKRTGKDRVRLQGSMLKPSSLVVVHPLAKPGADPCLYQNGGCEHICKKRLGTAWCSCREGFMKASDGKTCLALDGHQLLAGGEVDLKNQVTPLDILSKTRVSEDNITESQHMLVAEIMVSDQDDCAPVGCSMYARCISEGEDATCQCLKGFAGDGKLCSDIDECEMGVPVCPPASSKCINTEGGYVCRCSEGYQGDGIHCLDIDECQLGEHSCGENASCTNTEGGYTCMCAGRLSEPGLICPDSTPPPHLREDDHHYSVRNSDSECPLSHDGYCLHDGVCMYIEALDKYACNCVVGYIGERCQYRDLKWWELRHAGHGQQQKVIVVAVCVVVLVMLLLLSLWGAHYYRTQKLLSKNPKNPYEESSRDVRSRRPADTEDGMSSCPQPWFVVIKEHQDLKNGGQPVAGEDGQAADGSMQPTSWRQEPQLCGMGTEQGCWIPVSSDKGSCPQVMERSFHMPSYGTQTLEGGVEKPHSLLSANPLWQQRALDPPHQMELTQ
modifications: Pro-epidermal growth factor
B1: in assay [1] (OP9 co-culture), the “development of CK19+ clusters” value is “increase in the size”.

B2: TGFβ2: TGFbeta family member (protein, UniProt P61812 303-414, looked up)
Transforming growth factor …: ALDAAYCFRNVQDNCCLRPLYIDFKRDLGWKWIHEPKGYNANFCAGACPYLWSSDTQHSRVLSLYNTINPEASASPCCVSQDLEPLTILYYIGKTPKIEQLSNMIVKSCKCS
modifications: Transforming growth factor beta-2
notes: TGFbeta family member
Regarding B2, the cholangiocyte branching result in assay [1] was “promote branching structures”.

B3: TGFβ3: TGFbeta family member (protein, UniProt P10600 301-412, looked up)
Transforming growth factor …: ALDTNYCFRNLEENCCVRPLYIDFRQDLGWKWVHEPKGYYANFCSGPCPYLRSADTTHSTVLGLYNTLNPEASASPCCVPQDLEPLTILYYVGRTPKVEQLSNMVVKSCKCS
modifications: Transforming growth factor beta-3
notes: TGFbeta family member
As for B3, the cholangiocyte branching entry in assay [1] was “promote branching structures”.

B4: Wnt3A: wingless-type MMTV integration site family, member 3A factor, added to activin-induced EB cultures (protein, UniProt P56704 19-352, looked up)
Protein Wnt-3a: SYPIWWSLAVGPQYSSLGSQPILCASIPGLVPKQLRFCRNYVEIMPSVAEGIKIGIQECQHQFRGRRWNCTTVHDSLAIFGPVLDKATRESAFVHAIASAGVAFAVTRSCAEGTAAICGCSSRHQGSPGKGWKWGGCSEDIEFGGMVSREFADARENRPDARSAMNRHNNEAGRQAIASHMHLKCKCHGLSGSCEVKTCWWSQPDFRAIGDFLKDKYDSASEMVVEKHRESRGWVETLRPRYTYFKVPTERDLVYYEASPNFCEPNPETGSFGTRDRTCNVSSHGIDGCDLLCCGRGHNARAERRREKCRCVFHWCCYVSCQECTRVYDVHTCK
B4: the “proportion co-expressing CXCR4 and CKIT or CXCR4 and EPCAM” value in assay [2] is “greater than 95%”.
